One assay concerns GFP HBMECs. Description: Ang-1 addition to perfusion media, serpentine gel endothelialized with GFP HBMECs. As to conditions: complete Vasculife 3 days, then Ang-1 at 15 ng/ml for 3 days; perfused at 5 μL min^−1; day 6. In kind it is cell-based, human. The procedure: GFP HBMECs was seeded in the vascular channel at 30M mL^−1and perfused at 5 μL min^−1for duration of the study. […] Overlay and individual channels of GFP HBMEC and VE-Cadherin shown.
Once this was confirmed using HUVECs, the incorporation of Ang-1 to the perfusion media was tested on a gel endothelialized with GFP HBMECs. The same strategy was employed where the gel was perfused for 3 days with complete Vasculife media, then switched to a Vasculife media where Ang-1 was added in at 15 ng/ml for the remaining three days of perfusion culture. Images of cell morphology in the serpentine on days 3, 6, and after fixing and immunostaining for VE-Cadherin are seen in FIG. 26a. […] A magnified portion of the center channel is shown in FIG. 26b, which highlights the morphology of the GFP HBMECs and VE-Cadherin and includes nuclei in the overlay.

The next assay deals with GFP HUVECs. Description: Ang-1 addition to perfusion media, channels endothelialized with GFP HUVECs. In kind it is cell-based, human. The settings on record: complete Vasculife (with VEGF) 3 days, then Ang-1 added 15 ng mL^−1; perfused at 5 μL min^−1. The procedure:
FIGS. 25a-25c show immunostained VE-Cadherin junctions for channels endothelialized with GFP HUVECs (30M mL^−1) after being exposed to different media compositions. […] This gel was sustained for a total of twelve days while being perfused at 5 μL min^−1.
For the HUVECs, a mature monolayer was able to be obtained through modulation of the media composition and utilizing biomolecules that play an important role in endothelial cell function. In addition to the removal of VEGF, another avenue explored was the addition of Angiopoetin-1 (Ang-1). Angiopoetin-1 is a glycoprotein that is a known ligand for the endothelial cell-specific receptor tyrosine kinase, Tie-2 receptor. In vascular development during embryogenesis, VEGF and Ang-1 play essential and complementary roles. Vascular endothelial growth factor (VEGF) is responsible for the initial formation of the vascular plexus, while Angiopoetin-1 (Ang-1) is responsible for the subsequent remodeling of the vasculature into a network of mature vessels. […] The incorporation of this glycoprotein was first assessed using hydrogels endothelialized with GFP HUVECs. Three different media strategies were employed to assess the effect of adding Ang-1 to the perfusion media. […]

B1: Ang-1: glycoprotein that is a known ligand for the endothelial cell-specific receptor tyrosine kinase, Tie-2 receptor (protein, UniProt Q15389 16-498, looked up)
Angiopoietin-1: HIGCSNQRRSPENSGRRYNRIQHGQCAYTFILPEHDGNCRESTTDQYNTNALQRDAPHVEPDFSSQKLQHLEHVMENYTQWLQKLENYIVENMKSEMAQIQQNAVQNHTATMLEIGTSLLSQTAEQTRKLTDVETQVLNQTSRLEIQLLENSLSTYKLEKQLLQQTNEILKIHEKNSLLEHKILEMEGKHKEELDTLKEEKENLQGLVTRQTYIIQELEKQLNRATTNNSVLQKQQLELMDTVHNLVNLCTKEGVLLKGGKREEEKPFRDCADVYQAGFNKSGIYTIYINNMPEPKKVFCNMDVNGGGWTVIQHREDGSLDFQRGWKEYKMGFGNPSGEYWLGNEFIFAITSQRQYMLRIELMDWEGNRAYSQYDRFHIGNEKQNYRLYLKGHTGTAGKQSSLILHGADFSTKDADNDNCMCKCALMLTGGWWFDACGPSNLNGMFYTAGQNHGKLNGIKWHYFKGPSYSLRSTTMMIRPLDF
Regarding B1, the “endothelium confluence by VE-Cadherin immunostaining” value in the assay on GFP HBMECs is “a confluent endothelium of brain microvascular endothelial cells lining the serpentine channel has been achieved”. Besides, the “endothelial monolayer retention in perfusion culture” value in the assay on GFP HUVECs was “retained an endothelial monolayer for twelve days of perfusion culture”.
